# Test results as given in publication PMC5050020, “The C9ORF72 GGGGCC expansion forms RNA G-quadruplex inclusions and sequesters hnRNP H to disrupt splicing in ALS brains”.
# T1: hnRNP H1 (recombinant) (UniProt P31943 1-449)
# T1 sequence: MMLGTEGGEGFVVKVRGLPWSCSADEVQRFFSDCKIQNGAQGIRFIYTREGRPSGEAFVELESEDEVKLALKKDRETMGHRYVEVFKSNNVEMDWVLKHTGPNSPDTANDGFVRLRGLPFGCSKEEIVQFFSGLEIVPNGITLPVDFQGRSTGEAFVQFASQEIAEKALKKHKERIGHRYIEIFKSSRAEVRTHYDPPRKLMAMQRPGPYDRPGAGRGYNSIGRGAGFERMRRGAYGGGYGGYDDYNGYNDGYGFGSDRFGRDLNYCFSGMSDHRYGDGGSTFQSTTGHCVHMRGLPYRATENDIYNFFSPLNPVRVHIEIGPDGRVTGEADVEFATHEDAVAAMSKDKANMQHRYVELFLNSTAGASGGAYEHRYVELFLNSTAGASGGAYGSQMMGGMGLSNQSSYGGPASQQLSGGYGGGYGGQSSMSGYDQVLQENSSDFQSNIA
# Molecular target: T1, hnRNP H1 (recombinant)
# Experiment: EMSA; 30 nM tRNA; EMSA: 50 mM Tris pH 8, 50 mM NaCl, 2 mM EDTA, 0.5% BSA, 0.2% CHAPS, 0.3 nM RNA, 30 nM tRNA, 0-640 nM H1, 30 min 37 C, native 6% PAGE. UV crosslinking: ~1 nM RNA in U87 nuclear extract
# Details: protein: recombinant, (pRSET-C vector, Ni-NTA), label: 32P
Binder,"Kd (G-quadruplex, can be intramolecular) [µM]",Kd (G-quadruplex destabilized) [µM]
GGGGCCGGGGCCGGGGCCGGGGCC (structured_RNA) [4R],0.0755 ± 0.014,–
"GGGGCCGGGGCCGGGGCCGGGGCC (ssRNA, all G replaced by 7-deaza-G (transcribed with 7-deaza-GTP)) [4R-7dG]",–,0.0135 ± 0.003
